PMC4006948 (Molecular cell, 2013)

T1: recombinant Cmr2 (TTHB160), no tag (Thermus thermophilus HB8, UniProt Q53W09 1-584)
T1 sequence (looked up): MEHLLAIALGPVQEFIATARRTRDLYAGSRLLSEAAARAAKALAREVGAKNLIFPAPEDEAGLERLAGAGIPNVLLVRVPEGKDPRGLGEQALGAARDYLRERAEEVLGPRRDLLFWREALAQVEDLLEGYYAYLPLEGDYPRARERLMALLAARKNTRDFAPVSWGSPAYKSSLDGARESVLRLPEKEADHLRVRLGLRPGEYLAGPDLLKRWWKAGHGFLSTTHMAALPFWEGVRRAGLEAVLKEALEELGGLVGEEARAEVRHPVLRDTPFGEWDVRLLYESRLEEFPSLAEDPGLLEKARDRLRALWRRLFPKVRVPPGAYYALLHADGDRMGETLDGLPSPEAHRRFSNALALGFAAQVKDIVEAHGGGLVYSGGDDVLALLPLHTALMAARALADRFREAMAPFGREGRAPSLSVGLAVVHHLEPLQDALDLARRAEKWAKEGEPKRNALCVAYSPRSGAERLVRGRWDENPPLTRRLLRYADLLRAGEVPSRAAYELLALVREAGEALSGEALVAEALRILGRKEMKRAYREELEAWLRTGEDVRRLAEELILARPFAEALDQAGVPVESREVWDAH

B1: Cmr6 (TTHB165) with a (His)6 tag at its C-terminus (natural protein, Thermus thermophilus HB8, UniProt Q53W04 2-348, looked up)
chain: GRRSALEGVRLPQGKEPHRGLWLDKFLRSARREDTEAKRVLVREAAGIPEPGEYRAFFKRYRGALEALGAEIREARTLSRLVVGLGGEGVLETALTLHRAYGVPYIPGSALKGLASRYAHLYLEGEAWRRDLARFHRGEAQAGLFGTTEEQGLVVFWDALPLPGKWKLHPDILNPHHPDYYGSVKAPPADWDGPKPVPFLSATGTFLLALSPAPGVSPEEAGPWLRAAWRILAWALREEGVGAKTSSGYGRMALEEPASQGEKPLAPGPSPVLQDLLTWARALSYREVPRFLASQAEAILGLSVEEAQALRRALEERGFLRNPQDLKRWRKEHPGLEGVLAKLGLSA
B2: Cmr5 (TTHB164) (natural protein, Thermus thermophilus HB8 (endogenous), UniProt Q53W05 1-114, looked up)
chain: MRTRSQVWAQKAYEKVREAAKGEGRGEYRDMALKLPVLVRQAGLSQALAFVDSRGKEAHKALGNDLAQVLGYRDLRELAEAAREAELLQYLRLTREVLAAAEWFKRFAQALIEE
B3: recombinant Cmr3 (TTHB161), no tag (natural protein, Thermus thermophilus HB8, UniProt Q53W08 1-361, looked up)
chain: MLIEPRDPLIVRDGRPFTNSPGARAKSLPFPLPQTLAGAYRTRRALLEGLPLPERAEEVLRWGLRGPLLAEEGEGGWRLLAPRPLDALKLGEALYPLRPLELPQGAGTNLPEGLSPVGLPSPALKEKPAPLPAFWYWESFLEWLLQDAPAGFAPRGHEGPVPETRTHVALDPAAQTAREGFLFQTSGLEFVRGRRRLALVLWPEGPEPEGVFPLGGERRLAFWQKGGPGVPPLPEEVVAGLLRHRAARLVFLTPAFLGEAYLPKGRAFQGASVVAAVVGRPLAVSGWNLKEGKPKPSRRAVPAGSVYFVRLPEAWGEGEVRDWAEKVWFQNLSEEEQDRRDGFGLAALGLWDGKLRRWEEA
B4: Cmr4 (TTHB163) (natural protein, Thermus thermophilus HB8 (endogenous), UniProt Q53W06 2-286, looked up)
chain: SHVALLFLHALSPLHAGTGQGIGAIDLPIAREKATGIPYLPGSSLKGVLRDRASAWDRDTLFAVFGPDTENASEHAGAVQVGDAKLLLLPVRSLYGVFALVASPYLLERFRREALMAGLQPPGVPGLQDPTRVLLAPGSRLLGDGEKVYLEDLDLKAQGEEGVAAWERWLAERTEAPVLGRLAVVHDDLMGFLLETATEVVARIRLDDETKTVAKGALWYEESLPAESLLYALVRADRSFRKGKELPPEGVWALFRGVLEEGGGVLQLGGKATVGRGLCRIVVGR
B5: Cmr3 (TTHB161) (natural protein, Thermus thermophilus HB8 (endogenous), UniProt Q53W08 1-361, looked up)
chain: B3 chain
B6: Cmr1 (TTHB162) (natural protein, Thermus thermophilus HB8 (endogenous), UniProt Q53W07 1-395, looked up)
chain: MRRAFREAFSPRRKEEGGVLVRRDGARVLAWERTYTLLTPLFGGGVEPREADPVSVVRATAVRGHLRFWWRAVRGWRAGGSLERLWELESALFGSAGEGGASPLSVEVEVLREGEKVGIAQYGRAVQWYLGFPLRGDKEWAPVKEGVAFRLRLRFPEKVGELNFWEELEAALWAWETFGGIGARTRRGFGALLPQGAGVPGEEEIREKLRQYGQKAGWPEGVPHLTPKSFVRVVPLSWRELAERYQAFRQARPGGDPRSPGRSYWPEPDGVRRLTGRHAPHHLPRHPVHKFPRAHFGLPIIFHFKDRGDPPDTTLRLKEADRRASPLLFRPLGEGQKPCVVAVLEGARFPGEKLVLEGKDGRTWDVDPWLTPEEAQKIPVLGGEVDPVLAFVKSL
B7: Cmr2 (TTHB160) (natural protein, Thermus thermophilus HB8 (endogenous), UniProt Q53W09 1-584, looked up)
chain: T1 sequence (looked up)

How the values were obtained:
[1] = molecular target: B5; experiment: affinity purification with mass spectrometry
[2] = molecular target: B7; experiment: affinity purification with mass spectrometry
[3] = molecular target: B6; experiment: affinity purification with mass spectrometry
[4] = molecular target: B4; experiment: negative-stain electron microscopy, single particle reconstruction
[5] = molecular target: B1; experiment: native MS
[6] = molecular target: T1, recombinant Cmr2 (TTHB160), no tag; experiment: native MS
[7] = molecular target: the molecule itself; experiment: negative-stain electron microscopy, single particle reconstruction
[8] = molecular target: B7; experiment: as above

B1
binding result [1]: binds
binding result [2]: binds
binding result [3]: binds

B2
binding result [4]: binds
stoichiometry N [5]: 3 copies per Cmr6

B3
binding result [6]: binds

B4
stoichiometry N [7]: 4
stoichiometry N [5]: 4 copies per Cmr6

B5
binding result [8]: binds
stoichiometry N [5]: 1 copies per Cmr6

B6
stoichiometry N [5]: 1 copies per Cmr6

B7
stoichiometry N [5]: 1 copies per Cmr6
